Experimental findings from the DeepSol protein solubility set are described below.

The data set in a line: soluble on expression in E. coli; label from the status in PepcDB or PDB records.
In the case of “MGHHHHHHSHMLNSTGELEFSNEEDPEIISQLTSLPLSGGKSSAGVPEKTGYPDSVYVMAANIFQGIRIEKSAQKVLIKYGNEPLRSLSESEDQSFQRLSYELAFSALKYQDILETILIDSCIFPSTTTPDHLSSLIIVMLYDFQDRKFQTRVLSDNEEPISEVQEVENLLNSFKIKLAAALARCRIKHDALSIYHILPETVRKQELRASTLPLYAWINTCKISPEEVYNNLKRRGYNKVKSVLHIDDKVFAVDQHCYDVLIFPSHLKNDLINIDLFKDYKLIFQVN”, the “soluble on expression in E. coli” value is listed as “not soluble”. To “ELQKKIKAADDIFPNQKKNPDKKDNPNVLEVLGEYGGDGFFPTLGNNGLNIPDQVFQSFNNFQIENYKISDFKVDIASERDIVQHDKFRFSYVVN” belongs “soluble”; to “GGEGTDAIQALIQAYFTAWNTNAPERFAEIFWPDGSWVNVVGMHWRGRDQIVFAHTAFLKTIFKDCKQELVTIEARTIAPGSALAVVTLIQDAYVTPDGRQMPRAHDRLTLLAVEREGVWRFIHGHNTIVNPDAANNDPVLRMKPA”, “soluble”. Consider “MAHHHHHHMRVTHHNNNNERSADRPPPSPHPHSQYYRQRYSLFRKTHRHAALTCSTRSSSSSPAVQQLRVIHFFHSLRHATATQYSHTCSMRCILFSSLYLWRHRKVLQPAASWCWKKYGAATVRVSVWLYSRFNSSSTNGLAAAIPAGSFSSSPQNRGRLTGPSNGVTPCPMRSCAPPSHVPLRSRRRTQHPHAIAGKIGPST”, for which the “soluble on expression in E. coli” value was “soluble”. For the sequence “MRLEYRLNDETKGYPALWNYANISNSEIIARMTCEYFIKEKNTYVVTATSVDPDGTAVIYIQKEVFANDPSDPTYSYIGFEIRELSETSSNIVDSQDVWNYEEILPSLHSDIIYIQRDGMSMEFSLDSREIDEDRKCYIYYGNFTGESR”, the “soluble on expression in E. coli” value is on record as “soluble”.

For the sequence “MTTEIKKLDPDTAIDIAYDIFLEMAGENLDPADILLFNLQFEERGGVEFVETADDWEEEIGVLIDPEEYAEVWVGLVNEQDEMDDVFAKFLISHREEDREFHVIWKK”, the “soluble on expression in E. coli” value is reported as “soluble”.

On to “MGSDKIHHHHHHMKRILFISPTTSMDNGAEKSIYYLMKHLIQLGHTVINVTHAIGGEPQDKHEQLYKMIGVKNYYLPTVKWWWPDAPGGEILNREEATSYYRQNVQDIAEIIDQNEIDLVISNTVNVFQGAIAASCQKVPHFWLIHEFPKNEFAYYADKIDFIEEYSSELFSVTGELNNFLTPLFNKKVHSFISYTEQETKVLKKGNQVRIVSVGRLTEGKNQLELIKAYKTLNRLDIELVFIGGWDSKYKAICDEYIHENKLQKNVKFLGNLDNPWEEVTDRDICVFPSSMETFGLVYVEAILRGLPVILSDNLGHLTAFEIFSAGQIYKLGDIEELVTKLEQVIESFRNFSDRARLDVERLRTLYTPEVAYKEILNSINHLEYTGHQNTNLSHIKELLTLNMHPTRLERYARLISNMATKIRHKLRL”, for which the “soluble on expression in E. coli” value was “not soluble”.

“MHVFDNNGIELKAECSIGEEDGVYGLILESWGPGDRNKDYNIALDYIIERLVDSGVSQVVVYLASSSVRKHMHSLDERKIHPGEYFTLIGNSPRDIRLKMCGYQAYFSRTGRKEIPSGNRTKRILINVPGIYSDSFWASIIRGELSELSQPTDDESLLNMRVSKLIKKTLSQPEGSRKPVEVERLQKVYVRDPMVKAWILQQSKGICENCGKNAPFYLNDGNPYLEVHHVIPLSSGGADTTDNCVALCPNCHRELHYSKNAKELIEMLYVNINRLQKLEHHHHHH”: the “soluble on expression in E. coli” value is “soluble”.

“MIKRPHVMQDSIQDCGVACIEMICKFYNINIDRRYIQEETGYGMIGISLKAMEKFFSKVDANPEIVNISKINRLNKENREMINNSLPAIVFLEEEEIINHFVVIWHIGKKRILVSDPTHTKKEWINNKHFEKRAISYLFVEKPKNI”: the “soluble on expression in E. coli” value was “not soluble”. As for “GMKTIIRQPQLYRFLKYCNESNLDKTVLDCGAGGDLPPLSIFVEDGYKTYGIEISDLQLKKAENFSRENNFKLNISKGDIRKLPFKDESMSFVYSYGTIFHMRKNDVKEAIDEIKRVLKPGGLACINFLTTKDERYNKGEKIGEGEFLQLERGEKVIHSYVSLEEADKYFKDMKVLFKEDRVVERINDGLKIKQGYVDYIAEKFSKSIL”, the “soluble on expression in E. coli” value is “soluble”. For the sequence “MEIRVANKYALGKKLGSGSFGDIYVAKDIVTMEEFAVKLESTRSKHPQLLYESKLYKILGGGIGVPKVYWYGIEGDFTIMVLDLLGPSLEDLFTLCNRKFSLKTVLMTADQMLNRIEYVHSKNFIHRDIKPDNFLIGRGKKVTLIHIIDFGLAKKYRDSRSHTHIPYKEGKNLTGTARYASINTHLGIEQSRRDDIEALGYVLMYFLRGSLPWQGLKAISKKDKYDKIMEKKISTSVEVLCRNASFEFVTYLNYCRSLRFEDRPDYTYLRRLLKDLFIREGFTYDFLFDWTCVYASEKDKKKMLENKNRFDQTADQEGRVKQN”, the “soluble on expression in E. coli” value was “not soluble”. For the sequence “MSLQIQGQIVDIENKRIYSGEITIQNGKIISIIEKNHEVKNYILPGFIDAHIHIESSMLVPSEFAKIAVLHGTVATISDPHEIANVLGKKGVYYMIENGKQVPLKFHFGAPSCVPATAFETAGAIIDSEEIKELMASPDIYYLSEMMNYPGVLFDDDEVLKKIAWAKHFNKPIDGHAPGLRGEPIKKYISAGITTDHECFTYSEAQEKLSLGMKVIIREGSAAKNFEALIDLLPANYENMMFCSDDKHPDDLILGHINLLCARAVAKGIDVFKILQVACVNPVHHYKMKVGLLKKNDAADFIVVEDLVNFKVNKTYINGELVAENGQSFVENINFETPNNFNITKKKISDFEIPSLAEKIRVIEALEGQLITNEIHHNSFIKNGKLVSDIENDILKMAVVNRYQNTTPAIAFIKNFGLKKGAIASSVAHDCHNIVVVGTSDEEICNAVNLIIKNTGGICAVNGTQNKSLALPVAGIMSDKDAWETGKLYQEIDAMAKDLGSTLKAPFMTLSFMALLVIPDLKLSDKGLFSGNTFSFVDLNVEEGHHHHHH”, the “soluble on expression in E. coli” value was “soluble”.

In the case of “MSLAVVKGARVQVPFGQQIKVGIVVDLPSTTDIPQSKLKPIHAVLDHQAIFDPEIWQLLHWAASYYHAAIGEVLASALPVKLRNGDAAEYVENDYFRVTELGQQRLVSPENKRSKKQYDLLSRLAEIAGFFEKPAGVSPSVWKALLEKGYLAKVVPTCQRKSWQQSLANRPLVNSQSRLVLNQQQTLVVSRLNACQNFETFLLNGITGSGKTEVYLQVIEQILKQDKQVLVLVPEIGLTPQMVNRFKTRFNVEIDVLHSNINETMRLKVWLKAKNGESAIVIGTRSALFTQFQRLGLIIIDEEHDHSFKQQEGWRYHARDVAIFRAKCLNIPIILGSATPSLESVYNVKNGKFTQLLLSTRAGNAEIAQQQLIDLKTQRITAGLSDRLLMLMQTHLQKGNQVMLFLNRRGFAPVLLCHECGWICECDACEKPYTYHQKQRVLRCHHCASQRVIPRQCGYCGSTNLITTGIGTEQLEQLLSEYFPTYQISRIDRDSTGRKGALEHHLNAIQTGKSQILIGTQMLAKGHHFPNVTLVALVNVDSALFSTDFRAEERLAQLYLQVAGRAGRAEKTGEVVLQTHYPDHPLLKCLLKDGYNAFAEEALKMRQVMALPPFTAQVLFRATGKQSDKVEHLLQNLTAYFQHKSVELGIEGIQISPPFSAIVAKKAGYYRWLLLIQHQSRSAIQQLLNVFDQEKSALNLPANIRLSLDVDPYDMSEGHHHHHH”, the “soluble on expression in E. coli” value is listed as “soluble”. As for “MSLQTKHIDDLKEALMCQRNNDDKLEDLVGKIVNDYHTYAGKRSELSYRCCAHYFAPSWNTPIENSMLWMGGCRPSSFIRLIYALCGSQAETQLSQYLLKIDDDFDINHGGFMSDLTATQLGKLNDLHLEVIKKEDKITKTSANFQDDVADLPIADVVHADVAVEDALDKHEEGMAVLLAEADKLRFETLRKIVDVVTPLQAVEFLLAGKRLQLSLHDRGRVRADVCGGVGGAAV”, the “soluble on expression in E. coli” value is listed as “soluble”. Regarding “MIHYRMDQPDRVRCSVCGGIADEVDETYPEEGDFILVIYRCRDCGHLEKRQYGKPVKIID”, the “soluble on expression in E. coli” value is “not soluble”. To “GSPGIPGSTSELEEDFAKILMLKEERIKELEKRLSEKEEEIQELKRKLHKCQSVLPVPSTHIGPRTT” belongs “soluble”. With “MRDEDFCCAVCLDFFVEPCIIECGHSYCRFCIESHLNINEKCPLCRAHTGNPIRNRQLESLTMSYVSSRNISTEYYERMKSYQKKLLLQNRALVIIWTELNKRPGHSTELCNLVRNVQDEELKSEIMWQVKQQVGVGLEHTGDLQEENVTIRLKNSSSQQ”, the “soluble on expression in E. coli” value is reported as “not soluble”.
